Experimental data: US20260022144A1, “ANALGESIC POLYPEPTIDE” (Shanghai Puyou Biomedical Co., Ltd., priority 2022, published 2026)
Changes are numbered by the printed parent chain.

B1: SEQ ID NO: 75: artificial polypeptide of formula (I) X-Y (protein)
chain: SEKKQPVDLGLLEEDDEFEEFPAEDWAGLDEDEDAHVWEDNWDDDNVEDDFSNQLRATVLLMILVAETPYGAYV
B2: SEQ ID NO: 49: artificial polypeptide of formula (III) X-Y (protein)
chain: STKKQPVDLGLLETDSEFTEFPATSWAGLSESESAHVWTSNWDSSNVTSDFSNQLRATVLLMILVCETPYGCYVLHQKGRMCSAFLCC
B3: SEQ ID NO: 90: artificial polypeptide of formula (VI) X-Y (protein)
chain: B2 chain with C66A, C72A, C82A, C87A, C88A
B4: SEQ ID NO: 57: artificial polypeptide of formula (I) X-Y; also listed for peripheral neuropathic pain (protein)
chain: SEKKQPVDLGLLEEDDEFEEFPAEDWAGLDEDEDAHVWEDNWDDDNVTSDFSNQLRATVLLMI
B5: SEQ ID NO: 28: polypeptide of SEQ ID NO: 28 for treating or preventing peripheral neuropathic pain (protein)
chain: SEKKQPVDLGLLEEDDEFEEFPAEDWAGLDEDEDAHVWEDNWDDDNVEDDFSNQLRATVLLMILVCETPYGCYVLHQKGRMCSAFLCC
B6: SEQ ID NO: 93: artificial polypeptide of formula (VI) or (I) X-Y (protein)
chain: B5 chain with D34S, E48T, D49S, C66A, C72A, C82A, C87A, C88A

How the values were obtained:
[1] = tested on: VZV-induced pain model in rats; assay: VZV-induced pain model in rats, mechanical allodynia (von Frey) test; format: in vivo, rat; conditions: 10 mg polypeptide/kg i.v., single administration, tested 0.5 h after administration
Protocol: A summary of the method for inducing pain model in rats by means of subcutaneous VZV inoculation is provided hereinafter. Briefly, male Sprague Dawley (SD) rats were deeply anesthetized by intraperitoneal injection of a Zoletil R: 50 (30 mg/kg)/xylazine (6 mg/kg) anesthetic at an injection volume of 6 mL/kg, and then the virus inoculation was performed by subcutaneous injection at the footpad area. The infection dose was 22800 TCID50 per animal, and the infection volume was 150 μL for all rats.
Administration was performed on alternate days. Briefly, the test articles were administered by subcutaneous injection at the footpad area on Day 1 and Day 3, respectively. As for Group 2, the administration of SEQ ID NO: 29 was initiated from the first concentration. Namely, the first concentration (10 μg/mL) was administered on Day 1, and the second concentration (20 μg/mL) was administered on Day 3. Pain was measured once after each administration.
Mechanical allodynia tests (also called “von Frey tests”) for pain measurements were performed on the rats one hour after administration of the test articles on Day 1 and Day 3, respectively. In the behavioral test for rats, mechanical allodynia is expressed as the 50% paw withdrawal threshold (PWT), which is calculated according to the following formula:
[formula] • wherein • Xf=final test fiber value used in the test • k=tabular value for the pattern of positive/negative responses (Chaplan et al. 1994, page 62) • δ=mean difference.
Briefly, the rats were placed individually in plexiglass boxes with a grid at the bottom to ensure that the rats' feet could be tested. The rats were acclimated to the environment for 15 minutes prior to the test. After the acclimation was completed, pain (mechanical allodynia) was tested on the center of the sole of the left hind foot of the rats using test fibers. The test fibers included 8 test strengths: 3.61 (0.4 g), 3.84 (0.6 g), 4.08 (lg), 4.31 (2 g), 4.56 (4 g), 4.74 (6 g), 4.93 (8 g) and 5.18 (15 g). During the test, the test fibers were pressed vertically against the skin and forces were applied to bend the fibers for 6-8 seconds with a 5-second interval between each test. During the test, a pain response was recorded if the animals quickly withdrew their feet. The pain response was also recorded if the animal withdrew their feet as the test fibers left the animal's skin. The pain response was not recorded if the animal moved or ambulated, and the test should be repeated. The test was started with 4.31 (2 g). If the animal had pain response, the next test should be performed with a test fiber with a lower strength: if the animal has no pain response, the next test should be performed with a test fiber with a higher strength. The maximum strength of the tested fibers was 5.18 (15 g). The test results were recorded in a table, wherein the presence of pain response was recorded as “x”, and the absence of pain response was recorded as “0”.
The rats were randomly divided into 2 groups, with 8 rats in the placebo group (Group 1, administered with vehicle (normal saline)) and 8 rats in the treatment group (Group 2, administered with 30 mg SEQ ID NO: 29/kg). Briefly, the test articles were administered to the rats on a single day by intravenous injection.
Mechanical allodynia tests were performed on the rats 0.5 h after administration of the test articles according to the method as recited in Example 1, respectively.
The rats were randomly divided into 3 groups, with 8 rats in the placebo group (Group 1, administered with vehicle (normal saline)) and 16 rats in the treatment groups (Groups 2 and 3, 8 rats/group, administered with various polypeptides). Briefly, vehicle (normal saline) was administered to the rats from Group 1 and various polypeptides were administered to the rats from Group 2 (SEQ ID: 29, SEQ ID: 57 and SEQ ID: 49; 10 mg polypeptide/kg) and 3 (SEQ ID: 75 and SEQ ID: 28: 10 mg polypeptide/kg) on a single day by intravenous injection.

[2] = tested on: SNL pain model in rats; assay: SNL (spinal nerve ligation) pain model in rats, mechanical allodynia test; format: in vivo, rat; conditions: SD rats, i.v. single administration (SEQ ID NO: 29 30 and 60 mg/kg; SEQ ID NO: 90 and 93 60 mg/kg), 1 h after administration
Protocol: A summary of the method for inducing pain model in rats by means of spinal nerve ligation is provided hereinafter. Briefly, male SD rats were anesthetized with Zoletil R 50+xylazine hydrochloride (20 mg/kg+8 mg/kg, intraperitoneal injection). The surgical areas on the waist regions of the animals were shaved, and the skin was disinfected with iodophor and 70% v/v ethanol for three times. The left spinal nerves L5 and L6 of the animals were isolated, tightly ligated with 6-0 silk suture, and the wounds were sutured.
On the 11th day post operation, the animals were acclimated to the experimental environment, 15 minutes/day, for 3 consecutive days.
Briefly, after SNL modeling, 24 animals were randomly divided into 3 groups (Groups 2, 3 and 4, N=8/group). Group 1 (a Sham group, for which the 10 animals received essentially the same operation procedure as other groups but their left spinal nerves L5 and L6 were neither isolated nor ligated) was used as the control group. The test articles were administrated to the animals according to the protocol shown in Table 5, and mechanical allodynia tests were respectively performed 1h after administration according to the method as recited in Example 1.
Briefly, after SNL modeling, 30 animals were randomly divided into 3 groups (Group 1, N=6/group; Groups 2 and 3, N=12/group). Various polypeptides of the present disclosure were administered to the animals from Groups 2 and 3, and the animals were subjected to mechanical allodynia tests 1 h after administration according to the method as recited in Example 1.

Molecule	analgetic effect (50% PWT) [1]	analgetic effect (50% PWT) [2]
B1	apparent analgetic effect	
B2	apparent analgetic effect	
B3		certain analgetic effect
B4	apparent analgetic effect	
B5	apparent analgetic effect	
B6		certain analgetic effect
